Experimental data: article PMC4509764

How the values were obtained:
[1] = biological target: T1, NanR (Clostridium perfringens strain 13) (UniProt P26833); assay: EMSA; conditions: 20 mM HEPES pH 7.6, 1 mM EDTA, 10 mM ([…], room temperature 20 min
T1 sequence: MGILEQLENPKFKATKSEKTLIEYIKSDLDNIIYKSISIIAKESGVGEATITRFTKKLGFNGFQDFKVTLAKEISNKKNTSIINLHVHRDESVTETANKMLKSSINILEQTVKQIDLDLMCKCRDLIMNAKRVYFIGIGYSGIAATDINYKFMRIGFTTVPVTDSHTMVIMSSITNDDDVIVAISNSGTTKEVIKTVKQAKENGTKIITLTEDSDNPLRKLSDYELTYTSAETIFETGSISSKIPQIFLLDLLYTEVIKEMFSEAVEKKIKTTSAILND

[2] = biological target: T1, NanR (Clostridium perfringens strain 13); assay: competition; conditions: 20 mM HEPES pH 7.6, 1 mM EDTA, 10 mM ([…], room temperature 20 min

## CTTTCAATAATTACCCCTCCTAATTTATTTCATTAGTATTTATTATATGGTTCTTAACTTAATTATAACTTATTTCTAGGGAAAGTTATTATTAATTAGTAGATAAATATAAAATTTGCGTAGTATAAACTGTATTTTATACAATTTTAGTAATATTAAAGCTTATTTAAACGTATACATAATATAAGGTC (double strand) [nanJ promoter probe]
[1]
  binding: binds more weakly

## ATATTTTGATACATGCTCTTTTTTTATGAAATAAATTTTCAAAAACAAAAATTATAGGAATAAAAGTGAAAAAAATATGAATAAAAATGGCTTGAAACATAGGTTGTAGGCATATTTGGAAAAACTAAGAACCATAAAATAGAAAAATATTTTCAAAAAGTATTGAAATTCTGTGGGAAAAGGATTACAATAAAAACATAAAGAAAATAATTTTCAGAAAAAAGGTGATAAAATG (double strand) [nanE promoter probe]
[1]
  binding: binds
[2]
  binding: binds
